Measured values: patent US8623627B2, “Labelling of fusion proteins with synthetic probes” (New England Biolabs, Inc, priority 2006, dated 2014)
Residue numbers refer to the chain shown, from its start.

B1: ACT 10: alkylcytosine transferase 10, SEQ ID NO:12, from error prone PCR of ACT9 (protein)
chain: MDKDCEMKRTTLDSPLGKLELSGCEQGLHEIIFLGKGTSAADAVEVPAPAAVLGGPEPLIQATAWLNAYFHQPEAIEEFPVPALHHPVFQQESFTRQVLWKLLKVVKFGEVISESHLAALVGNPAATAAVNTALDGNPVPILIPCHRVVQGDSDVGPYLGGLAVKEWLLAHEGHRLGKPGLG
modifications: alyklcytosine transferase 10 derived from O6- alkylguanine-DNA alkyltransferase
B2: ACT 1: alkylcytosine transferase 1, SEQ ID NO:1, derived from ^NAGT by directed evolution (protein)
chain: B1 chain with I60M, E114R, V121A, N131S, V148E, S153L, P157G, L159M
modifications: alkylcytosine transferase 1 derived from O6- alkylguanine-DNA alkyltransferase
B3: ^NAGT: 182 amino acid mutant of ^wtAGT, SEQ ID NO:2, starting point for directed evolution (protein)
chain: B1 chain with I60M, E114Y, V121A, N131K, D135S, S153L, P157G, L159E
modifications: O6-alkylguanine-DNA alkyltransferase (AGT) mutant

Key:
GST-ACT1 = biological target: T1, GST-ACT1 (Homo sapiens, UniProt P16455, A127T/A154D/C150Q/C62A/G131S/G132T/G153L/K125A/K32I/L33F/M134L/N157G/Q115S/Q116H/R128A/R135D/S151G/S152D/S159M/V148E/Y114R); assay: In vitro specific dual labelling assay, labelling of GST-ACT1; assay type: biochemical; conditions: equimolar GST-ACT1 and 6×His-^NAGT 0.5 μM, single substrate 5 μM, 24° C., 60 minutes
T1 construct: made in house
T1 sequence (P16455 1-182 K32I/L33F/C62A/Y114R/Q115S/Q116H/K125A/A127T/R128A/G131S/G132T/M134L/R135D/V148E/C150Q/S151G/S152D/G153L/A154D/N157G/S159M): B1 chain with I60M, E114R, V121A, N131S, V148E, S153L, P157G, L159M
Method: (§1) Fluorescent dye-labelled protein mixtures were analyzed by SDS-PAGE, see Example 12. GST-ACT1: fusion protein of ACT 1 (SEQ ID NO:1) with glutathione S-transferase (GST). 6×His-AGT: fusion protein of ^NAGT (SEQ ID NO:2) with the short peptide 6×His. […] BCFL: compound 5 (Example 4). BCCy5: compound 10 (Example 8).
(§2) Labelling reactions were quenched by addition of 4× SDS buffer (8% SDS, 10% β-mercaptoethanol, 240 mM Tris pH 6.8, 40% glycerol) and incubation for 5 min at 95° C. Fluorescent dye-labelled protein mixtures were analyzed by SDS-PAGE as described above.

6×His-^NAGT = biological target: T2, 6×His-^NAGT (Homo sapiens, UniProt P16455, A127T/A154D/C150Q/C62A/G131K/G132T/G153L/K125A/K32I/L33F/M134L/N157G/Q115S/Q116H/R128A/R135S/S151G/S152D/S159E); assay: In vitro specific dual labelling assay, labelling of 6×His-^NAGT; assay type: biochemical; conditions: equimolar GST-ACT1 and 6×His-^NAGT 0.5 μM, single substrate 5 μM, 24° C., 60 minutes
T2 construct: ^NAGT is a 182 amino acid mutant of ^wtAGT in which the last 25 amino acids are deleted
T2 sequence (P16455 1-182 K32I/L33F/C62A/Q115S/Q116H/K125A/A127T/R128A/G131K/G132T/M134L/R135S/C150Q/S151G/S152D/G153L/A154D/N157G/S159E): B1 chain with I60M, E114Y, V121A, N131K, D135S, S153L, P157G, L159E
Method: as §1, §2

[1] = Reaction rates of labelling of GST fusion proteins with BCFL; assay type: biochemical; conditions: for kBCFL: second-order rate constant, GST-fusion protein with BCFL, 50 mM HEPES pH 7.2, 24° C.
Method: (§3) The fluorescent readout of an SDS gel run after different time of incubation is shown on top with the corresponding graph at the bottom. The percentage of ACT-Fluorescein conjugate (% ACT-FL) formed from ACT is shown vs. time of incubation (min). […] GST-ACT10: fusion protein of ACT 10 (SEQ ID NO:12) with glutathione S-transferase (GST).
(§4) The genes of mutants isolated after phage selection according to Example 9 were amplified by PCR using primers 6 (N, AGT, SEQ ID NO:8) and 7 (C, AGT, SEQ ID NO:9) that contain, respectively, BamH1 and EcoR1 restriction sites for subsequent subcloning into pGEX-2T vector (Amersham Biosciences, Otelfingen, Switzerland). Expression and purification of proteins as GST-ACT fusion proteins were performed as previously described for AGT fusion proteins (A. Juillerat, T. Gronemeyer, A. Keppler, S. Grendreizig, H. Pick, H. Vogel, K. Johnsson, Chem. Biol. 10:313, 2003). […] Samples were taken at different times and the labelling reaction was quenched by addition of 4× SDS buffer (8% SDS, 10% β-mercaptoethanol, 240 mM Tris pH 6.8, 40% glycerol) and incubation at 95° C. for 5 min. The reaction advancement was determined by detection of the fluorescent dye-labelled proteins in SDS-PAGE gel and quantification of fluorescence intensity using a Pharox FX™ molecular imager. The data were fitted to a pseudo-first order reaction model. Second-order rate constants were then obtained by dividing the pseudo first-order constant by the concentration of fluorogenic substrate.

[2] = Reaction rates of labelling of GST fusion proteins with BGFL; assay type: biochemical; conditions: for kBGFL: second-order rate constant, GST-fusion protein with BGFL, 50 mM HEPES pH 7.2, 24° C.
Method: as §3, §4

[3] = Urea-induced unfolding, read out as ACT-Fluorescein formed with BCFL; assay type: physicochemical; conditions: for half unfolding urea concentration C1/2: protein 0.5 μM, urea 0 to 8 M for 30 minutes, then 20 μM BCFL for 2 hours
Method: Shown is the percentage of ACT-Fluorescein (% ACT-FL) formed. The value obtained at 0 M urea [(NH2)2CO] is set to 100%. Protein (0.5 μM) was incubated in kinetic buffer (50 mM HEPES, pH 7.2, 1 mM DTT) supplemented with urea (0 to 8 M) for 30 minutes. Then the solution was adjusted to 20 μM BCFL and incubated for 2 hours. Samples were then boiled 5 min at 95° C. in SDS buffer. Fluorescent dye-labelled protein mixtures were analyzed by SDS-PAGE. The data set was fitted with Y=100/(1+10^((log C1/2−X)*HillSlope)) to get the half unfolding urea concentration C1/2. The following values of C1/2 were found for the different mutants: • ACT1 2.8±0.1 M; ACT9 4.1±0.1 M; ACT10 5.1±0.2 M.

[4] = versus ^wtAGT; cited from earlier work

Row | Molecule | labelling of GST-ACT1 (GST-ACT1) | labelling of 6×His-^NAGT (6×His-^NAGT) | kBCFL [1] [M⁻¹ s⁻¹] | kBGFL [2] [M⁻¹ s⁻¹] | half unfolding urea concentration C1/2 [3] [M] | other results
1 | N-[4-(4-Aminopyrimidin-2-yloxymethyl)-benzyl]-Cy5-carboxamide [BCCy5] | complete labelling | 6% | – | – | – | –
2 | Nc1ccnc(OCc2ccc(CNC(=O)c3ccc4c(c3)C3(OC4=O)c4ccc(O)cc4Oc4cc(O)ccc43)cc2)n1 [BCFL, N-[4-(4-Aminopyrimidin-2-yloxymethyl)-benzyl]-fluorescein-6-carboxamide] | complete labelling | 76% | – | – | – | –
3 | O^6-[4-(Cy5)-Aminomethyl]-benzyl guanine [BGCy5] | – | complete labelling | – | – | – | –
4 | B1 | – | – | 1130 | 10 | 5.1 ± 0.2 | reactivity towards benzylcytosine [1]: high reactivity; kBC ([1]; FIG. 2, 0.5 μM GST-ACT10 with BCFL): 1130 ± 150 M⁻¹ s⁻¹; kBG ([2]; FIG. 2, 0.5 μM GST-ACT10 with BGFL): ~10 M⁻¹ s⁻¹; stability against denaturation by urea ([3]; 4 M urea): high stability
5 | B2 | – | – | 730 | <10 | 2.8 ± 0.1 | –
6 | B3 | – | – | 26 | 28000 | – | higher activity towards benzylguanine derivatives than wild-type ^wtAGT [4]: approximately 50 fold
